Experimental data: paper PMC2815190 (Molecular immunology, 2009)
One block for each molecule: values may come before it.

Experiments:
[1] = target: human Toll-like receptor 8 with the RQSYA motif deleted (human) (UniProt Q9NR97); test: immunoblot of cell lysate
[2] = target: the molecule itself; test: immunoblot of cell lysate

- stoichiometry N [1]: 2
Molecule: human Toll-like receptor 8 with the RQSYA motif deleted (from UniProt Q9NR97-1 27-1041)

B1: human Toll-like receptor 8, wild type (receptor, UniProt Q9NR97-1 27-1041, looked up)
chain: EENFSRSYPCDEKKQNDSVIAECSNRRLQEVPQTVGKYVTELDLSDNFITHITNESFQGLQNLTKINLNHNPNVQHQNGNPGIQSNGLNITDGAFLNLKNLRELLLEDNQLPQIPSGLPESLTELSLIQNNIYNITKEGISRLINLKNLYLAWNCYFNKVCEKTNIEDGVFETLTNLELLSLSFNSLSHVPPKLPSSLRKLFLSNTQIKYISEEDFKGLINLTLLDLSGNCPRCFNAPFPCVPCDGGASINIDRFAFQNLTQLRYLNLSSTSLRKINAAWFKNMPHLKVLDLEFNYLVGEIASGAFLTMLPRLEILDLSFNYIKGSYPQHINISRNFSKLLSLRALHLRGYVFQELREDDFQPLMQLPNLSTINLGINFIKQIDFKLFQNFSNLEIIYLSENRISPLVKDTRQSYANSSSFQRHIRKRRSTDFEFDPHSNFYHFTRPLIKPQCAAYGKALDLSLNSIFFIGPNQFENLPDIACLNLSANSNAQVLSGTEFSAIPHVKYLDLTNNRLDFDNASALTELSDLEVLDLSYNSHYFRIAGVTHHLEFIQNFTNLKVLNLSHNNIYTLTDKYNLESKSLVELVFSGNRLDILWNDDDNRYISIFKGLKNLTRLDLSLNRLKHIPNEAFLNLPASLTELHINDNMLKFFNWTLLQQFPRLELLDLRGNKLLFLTDSLSDFTSSLRTLLLSHNRISHLPSGFLSEVSSLKHLDLSSNLLKTINKSALETKTTTKLSMLELHGNPFECTCDIGDFRRWMDEHLNVKIPRLVDVICASPGDQRGKSIVSLELTTCVSDVTAVILFFFTFFITTMVMLAALAHHLFYWDVWFIYNVCLAKVKGYRSLSTSQTFYDAYISYDTKDASVTDWVINELRYHLEESRDKNVLLCLEERDWDPGLAIIDNLMQSINQSKKTVFVLTKKYAKSWNFKTAFYLALQRLMDENMDVIIFILLEPVLQHSQYLRLRQRICKSSILQWPDNPKAEGLFWQTLRNVVLTENDSRYNNMYVDSIKQY
- stoichiometry N [2]: 2
